The values that follow come from article PMC9986708.

Test [1] deals with apolipoprotein E ɛ2 (apoE ɛ2) (human (endogenous in plasma)) (UniProt P02649). Description: non-reducing SDS-PAGE with western blot.
Test [2] has as its target apolipoprotein E ɛ3 (apoE ɛ3) (human (endogenous in plasma)) (UniProt P02649). Description: non-reducing SDS-PAGE with western blot.

For “apolipoprotein E ɛ2 (apoE ɛ2) (from UniProt P02649 19-317) (natural protein)”, the stoichiometry N in test [1] was determined as 2.

In turn, “apolipoprotein E ɛ3 (apoE ɛ3) (from UniProt P02649 19-317) (natural protein)” showed a stoichiometry N in test [2] of 2.
